In assay [1] the target is EGFR on the surface of tumor cells (human) (UniProt P00533). Briefly: flow cytometry on A431 cells preincubated with 2 ug EGF, 2 uM bio-P190: avidin complex, 4° C. In general terms: In flow cytometry, cells or beads pass a laser one at a time.
Assay [2] shares this target.

Positions of bridges follow the written chain, without caps; N, C: chain ends. No end group written: not given here. PEG = not defined here

The values below come from patent publication US8278415B2.

Turning to DPCTWEVWGRECLQ-{PEG-biotin} (disulfide 3-12 (inferred); reading uncertain) [Biotinylated-PEGylated P190], in assay [1], the staining over background came to 20 fold.

B1: P190-DOXIL (peptide)
peptide: DPCTWEVWGRECLQ
modifications: disulfide 3-12 (inferred); not fully specified (N-terminus); also: inserted into DOXIL liposomes (doxorubicin)
B1: in assay [2], the IC50 D4 was 120 µg/mL and the IC50 D6 was found to be 35 µg/mL.
